B1: KB_A07_Shk (antibody, V domains shown)
VH: EVQLVESGGGLVRPGGSLRLSCAASGFTFSSYAMSWVRQAPGKGLEWVSAISGSGGSTYYADSVKGRFTISRDNTKNSLYLQMTSLRADDTAFYYCVKDFGPGYGTGWFDYWGPGTLVTVSS
VL: NWYQQKPGKAPKLLIYAAGVRSCIDTIPKSRCTAFQCKHSMKYRLSFCRKTCGTCSRSGVPSRFSGSGSGTDFTLTISSLQPEDFATYYCQQGASPPYTFGQGTKVEIKR
B2: KB_B02 (scFv, V domains shown)
VH: EVQLVESGGGLVRPGGSLRLSCAASGFTFSSYAMSWVRQAPGKGLEWVSAISGSGGSTYYADSVKGRFTISRDNTKNSLYLQMTSLRADDTAFYYCVKDFGPGYGTGWFDYWGPGTLVTVSS
VL: AVNWYQQLPGKAPKLLIYAAVGCPRILMRCKQDSDCLAGCVCGPNGFCGTGSGIPERFSGSKSGNTASLTISGLQAEDEGDYYCAAWDDSLSGPVFGGGTKLTVLG
B3: KB_C07 (scFv, V domains shown)
VH: EVQLVESGGGLVRPGGSLRLSCAASGFTFSSYAMSWVRQAPGKGLEWVSAISGSGGSTYYADSVKGRFTISRDNTKNSLYLQMTSLRADDTAFYYCVKDFGPGYGTGWFDYWGPGTLVTVSS
VL: AVNWYQQLPGKAPKLLIYAAVGCPRILMRCKQDSDCLAGCVCGPNGFCGSASGVSDRFSGSKSGTSASLAISGLRSEDEADYYCASWDDSLRGYVFGTGTKVTVLG
B4: KB_B10 (scFv, V domains shown)
VH: EVQLVESGGGLVRPGGSLRLSCAASGFTFSSYAMSWVRQAPGKGLEWVSAISGSGGSTYYADSVKGRFTISRDNTKNSLYLQMTSLRADDTAFYYCVKDFGPGYGTGWFDYWGPGTLVTVSS
VL: QSVLTQLPSVSEAPRQRVTITCGRAMCPRILMRCKQDSDCLAGCVCGPNGFCGTGNWYQQHPGKAPKLIIFDVSKRPSGVPDRFSASKSGNTASLTISGLQAEDEADYYCNSYTSSNTWVFGGGTQLTVLG
B5: KB_A07 MoKa-1 fusion (antibody, V domains shown)
VH: EVQLVESGGGLVRPGGSLRLSCAASGFTFSSYAMSWVRQAPGKGLEWVSAISGSGGSTYYADSVKGRFTISRDNTKNSLYLQMTSLRADDTAFYYCVKDFGPGYGTGWFDYWGPGTLVTVSS
VL: DIQMTQSPSSLSASVGDRVTITCRASQSISSYLNWYQQKPGKAPKLLIYAAGVINVKCSLPQQCIKPCKDAGMRFGKCMNKKCRCYSSRSGVPSRFSGSGSGTDFTLTISSLQPEDFATYYCQQGASPPYTFGQGTKVEIKRT
B6: KB_A12 Kaliotoxin (KTX) fusion (antibody)
VH: EVQLVESGGGLVRPGGSLRLSCAASGFTFSSYAMSWVRQAPGKGLEWVSAISGSGGSTYYADSVKGRFTISRDNTKNSLYLQMTSLRADDTAFYYCVKDFGPGYGTGWFDYWGPGTLVTVSS
VL: QSVLTQPPSVSEAPRQRVTITCSGSSSNIGNNAVNWYQQLPGKAPKLLIYAAGRGVEINVKCSGSPQCLKPCKDAGMRFGKCMNRKCHCTPKANSGVSDRFSAAKSGTSASLAINGLRSEDEADYYCAAWDDSLNGYVFGTGTKLTVLGQP
B7: KB_A11 (scFv, V domains shown)
VH: EVQLVESGGGLVRPGGSLRLSCAASGFTFSSYAMSWVRQAPGKGLEWVSAISGSGGSTYYADSVKGRFTISRDNTKNSLYLQMTSLRADDTAFYYCVKDFGPGYGTGWFDYWGPGTLVTVSS
VL: YLNWYQQKPGKAPKLLIYAAEICPRILMRCKQDSDCLAGCVCGPNGFCGPSSGIPARFSGSGYGTDFTLTINNIESEDAAYYFCLQHDNFPYTFGQGTKVEIKR
B8: KB_B12 (scFv, V domains shown)
VH: EVQLVESGGGLVRPGGSLRLSCAASGFTFSSYAMSWVRQAPGKGLEWVSAISGSGGSTYYADSVKGRFTISRDNTKNSLYLQMTSLRADDTAFYYCVKDFGPGYGTGWFDYWGPGTLVTVSS
VL: TQPPSVSEAPRQRVTITCGERPCPRILMRCKQDSDCLAGCVCGPNGFCGANNWYQQLPGSSPTTVIYEDNQRPSGVPDRFSGSIDSSSNSASLTISGLKTEDEADYYCQSYDSSNQVFGGGTKVTVLG
B9: KB_C09 (scFv, V domains shown)
VH: EVQLVESGGGLVRPGGSLRLSCAASGFTFSSYAMSWVRQAPGKGLEWVSAISGSGGSTYYADSVKGRFTISRDNTKNSLYLQMTSLRADDTAFYYCVKDFGPGYGTGWFDYWGPGTLVTVSS
VL: AVNWYQQLPGKAPKLLIYAAGRCPRILMRCKQDSDCLAGCVCGPNGFCGGGSGVPDRFSGSIDSSSNSASLTISGLRAEDEADYYCQSYDSSNHWVFGGGTKLTVLG
B10: KB_C08 (scFv, V domains shown)
VH: EVQLVESGGGLVRPGGSLRLSCAASGFTFSSYAMSWVRQAPGKGLEWVSAISGSGGSTYYADSVKGRFTISRDNTKNSLYLQMTSLRADDTAFYYCVKDFGPGYGTGWFDYWGPGTLVTVSS
VL: AVNWYQQLPGKAPKLLIYAAAVCPRILMRCKQDSDCLAGCVCGPNGFCGTRSGIPERFSGSKSGTSAFLAISGLRSEDEADYYCAAWDDSLSGVVFGGGTKLTVLG
B11: KB_C10 (scFv, V domains shown)
VH: EVQLVESGGGLVRPGGSLRLSCAASGFTFSSYAMSWVRQAPGKGLEWVSAISGSGGSTYYADSVKGRFTISRDNTKNSLYLQMTSLRADDTAFYYCVKDFGPGYGTGWFDYWGPGTLVTVSS
VL: AVNWYQQLPGKAPKLLIYAAGPCPRILMRCKQDSDCLAGCVCGPNGFCGADSGVSDRFSGSKSGTSASLAITGLQAEDEGDYYCAAWDDSLNGLVFGGGTKVTVLG
B12: KB_A10 (scFv, V domains shown)
VH: EVQLVESGGGLVRPGGSLRLSCAASGFTFSSYAMSWVRQAPGKGLEWVSAISGSGGSTYYADSVKGRFTISRDNTKNSLYLQMTSLRADDTAFYYCVKDFGPGYGTGWFDYWGPGTLVTVSS
VL: AVNWYQQLPGKAPKLLIYAAGGCPRILMRCKQDSDCLAGCVCGPNGFCGSNSGVPDRFSGSKSGNTASLTISGLQSEDEADYYCAAWDDSLSGVVFGGGTQLTVLG
B13: KB_B11 (scFv, V domains shown)
VH: EVQLVESGGGLVRPGGSLRLSCAASGFTFSSYAMSWVRQAPGKGLEWVSAISGSGGSTYYADSVKGRFTISRDNTKNSLYLQMTSLRADDTAFYYCVKDFGPGYGTGWFDYWGPGTLVTVSS
VL: TQPPSVSEAPRQRVTITCGSRPCPRILMRCKQDSDCLAGCVCGPNGFCGSHNWYQQLPGSSPTTVIYEDNQRPSGVPDRFSGSIDRSSNSASLTISGLKTEDEADYYCQSYDSSNHRVVFGGGTKLTVLG
B14: KB_B01 (scFv, V domains shown)
VH: EVQLVESGGGLVRPGGSLRLSCAASGFTFSSYAMSWVRQAPGKGLEWVSAISGSGGSTYYADSVKGRFTISRDNTKNSLYLQMTSLRADDTAFYYCVKDFGPGYGTGWFDYWGPGTLVTVSS
VL: AVNWYQQLPGKAPKLLIYAAAGCPRILMRCKQDSDCLAGCVCGPNGFCGTRSGVSDRFSGSKSGTSASLAISGLRSEDEADYYCAAWDDSLRAYVFGTGTKLTVLG

Tests used:
[1] = biological target: human Kv 1.3 (human) (UniProt P22001); test: cell-based or functional assay
human Kv 1.3 (human), sequence (P22001 whole entry): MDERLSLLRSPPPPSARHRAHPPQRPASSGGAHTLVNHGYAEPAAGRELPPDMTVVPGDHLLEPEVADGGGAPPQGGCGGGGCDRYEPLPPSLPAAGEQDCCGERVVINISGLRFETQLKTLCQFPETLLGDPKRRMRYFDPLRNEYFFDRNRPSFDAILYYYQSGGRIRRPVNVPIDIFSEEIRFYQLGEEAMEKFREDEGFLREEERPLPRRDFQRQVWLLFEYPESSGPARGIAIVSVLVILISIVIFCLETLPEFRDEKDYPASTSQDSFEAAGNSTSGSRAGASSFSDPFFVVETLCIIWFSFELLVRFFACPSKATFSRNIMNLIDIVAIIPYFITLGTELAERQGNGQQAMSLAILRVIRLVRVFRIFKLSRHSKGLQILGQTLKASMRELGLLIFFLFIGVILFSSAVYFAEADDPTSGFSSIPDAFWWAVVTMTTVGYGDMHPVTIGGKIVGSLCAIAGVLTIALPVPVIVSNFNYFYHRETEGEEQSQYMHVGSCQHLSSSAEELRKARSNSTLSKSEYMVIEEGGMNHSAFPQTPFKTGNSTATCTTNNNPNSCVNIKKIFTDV

[2] = biological target: trypsin; test: monoclonal phage TRF ELISA
[3] = biological target: trypsin; test: phage TRF ELISA; GlyAla (Pro3Gly, Arg4Ala) mutant against the clone

| Binder | IC50, inhibition of huKv1.3 currents (QPatch, CHO cells) [1] | trypsin binding signal (FU) [2] | % reduction in binding signal [3] |
| --- | --- | --- | --- |
| B1 | 0.04 µM |  |  |
| B2 |  | 116000 FU | 98% |
| B3 |  | 43300 FU | 100% |
| B4 |  | 9270 FU | 100% |
| B5 | > 10 µM |  |  |
| B6 | > 10 µM |  |  |
| B7 |  | 16400 FU | 100% |
| B8 |  | 17400 FU | 97% |
| B9 |  | 89400 FU | 100% |
| B10 |  | 76800 FU | 100% |
| B11 |  | 119000 FU | 100% |
| B12 |  | 38800 FU | 100% |
| B13 |  | 10300 FU | 100% |
| B14 |  | 57700 FU | 95% |

From patent US20260043020A1, “BINDING MEMBERS WITH ALTERED DIVERSITY SCAFFOLD DOMAINS” (priority 2016, published 2026)
